Measured values published in US20160115500A1 (University of California, published 2016).
Residue numbers refer to the chain shown, from its start. Names may count otherwise.

Assays:
[1] = molecular target: GAL4 activation domain fusion (ACT) to HAB1 (UniProt Q9CAJ0); test: yeast two-hybrid, X-gal; lowest mandipropamid concentration giving signal
[2] = molecular target: T1, 6×-His tagged PYR1^K59R,F108A,S122G
T1 chain: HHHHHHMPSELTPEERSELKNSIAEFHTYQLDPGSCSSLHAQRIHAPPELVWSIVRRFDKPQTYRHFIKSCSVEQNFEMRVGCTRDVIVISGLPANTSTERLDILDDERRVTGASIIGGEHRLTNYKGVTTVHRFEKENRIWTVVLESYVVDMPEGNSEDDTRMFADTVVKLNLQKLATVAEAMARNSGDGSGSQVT

6×-His-PYR1^MANDI = molecular target: T2, 6×-His-PYR1^MANDI
T2 chain: T1 chain with Y64H, V87I, F165L

[3] = molecular target: T3, GAL4 activation domain fusion (ACT) to HAB1 (UniProt Q9CAJ0 23-511, limits assumed); test: yeast two-hybrid, X-gal; lowest benoxacor concentration giving signal
T3 construct: pACT-HAB1 fusion in yeast reporter strains; also called pACT-HAB1
T3 sequence (looked up): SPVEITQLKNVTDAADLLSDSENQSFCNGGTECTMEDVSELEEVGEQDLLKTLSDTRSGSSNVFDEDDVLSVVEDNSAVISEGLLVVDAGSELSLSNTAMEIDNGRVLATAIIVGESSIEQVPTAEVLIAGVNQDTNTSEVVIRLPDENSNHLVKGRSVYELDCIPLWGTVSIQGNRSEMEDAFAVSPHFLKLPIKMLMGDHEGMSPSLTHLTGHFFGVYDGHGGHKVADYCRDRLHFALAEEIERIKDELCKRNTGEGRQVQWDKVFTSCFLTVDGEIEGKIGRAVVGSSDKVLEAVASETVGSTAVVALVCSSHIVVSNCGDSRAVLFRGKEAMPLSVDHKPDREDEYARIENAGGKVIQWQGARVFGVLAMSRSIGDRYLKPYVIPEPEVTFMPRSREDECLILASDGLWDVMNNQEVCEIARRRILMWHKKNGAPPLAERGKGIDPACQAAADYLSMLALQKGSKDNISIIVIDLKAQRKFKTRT
Procedure: The set of 475 mutant plasmids were individually transformed into the Y190 yeast two hybrid reporter strain co-transformed with pACT-HAB1, as previously described (Park et al., 2009). The yeast strains generated were arrayed into 96-well plates yielding what we refer to as the “pocket library”. The pocket library strains were spotted onto agar plates containing selective synthetic dextrose (minus Leu & Trp) medium that was supplemented with a single test compound at 100 μM. The pocket library strains were separately tested for responsiveness to the following compounds: dichlobenil, benzothiadiazole, mandipropamid, fludioxonil, and benoxacor. After incubating test plates at 30° C. for two days, colonies were chloroform lysed and stained to reveal β-galactosidase expression levels, using previously described methods (Park et al., 2009). Mutants displaying responsiveness to the test compound, if present, were identified by virtue of X-gal staining and then subjected to subsequent optimization efforts. Using this approach we identified mutations that conferred detectable sensitivity to the compounds tested (see entries labeled “Pocket Library Screens” in Table 1).

[4] = molecular target: T3, GAL4 activation domain fusion (ACT) to …; test: yeast two-hybrid, X-gal; lowest mandipropamid concentration giving signal
[5] = molecular target: T3, GAL4 activation domain fusion (ACT) to …; test: yeast two-hybrid, X-gal; lowest fludioxonil concentration giving signal
[6] = molecular target: T3, GAL4 activation domain fusion (ACT) to …; test: yeast two-hybrid, X-gal; lowest dichlobenil concentration giving signal
[7] = molecular target: T3, GAL4 activation domain fusion (ACT) to …; test: yeast two-hybrid, X-gal; lowest benzothiadiazole concentration giving signal

PYR1^Y58H,K59R,V81I,F108A,F159L (from UniProt P04386 1-147) (receptor)
Threshold [1]: 0.01 µM

B1: GST-HAB1 (protein)
chain: T3 sequence (looked up)
PP2C activity (pNPP substrate), 600 nM PP2C and 1200 nM receptor [2]: saturable inhibition of HAB1 and ABI2 PP2C activity by mandipropamid in the presence of PYR1^MANDI (FIG. 1A, bottom lines) and PYR1^K59R,F108A,S122G | PP2C activity (pNPP substrate), 600 nM PP2C and 1200 nM receptor (6×-His-PYR1^MANDI): saturable inhibition of HAB1 and ABI2 PP2C activity by mandipropamid in the presence of PYR1^MANDI

B2: GST-ABI2 (protein)
chain: MDEVSPAVAVPFRPFTDPHAGLRGYCNGESRVTLPESSCSGDGAMKDSSFEINTRQDSLTSSSSAMAGVDISAGDEINGSDEFDPRSMNQSEKKVLSRTESRSLFEFKCVPLYGVTSICGRRPEMEDSVSTIPRFLQVSSSSLLDGRVTNGFNPHLSAHFFGVYDGHGGSQVANYCRERMHLALTEEIVKEKPEFCDGDTWQEKWKKALFNSFMRVDSEIETVAHAPETVGSTSVVAVVFPTHIFVANCGDSRAVLCRGKTPLALSVDHKPDRDDEAARIEAAGGKVIRWNGARVFGVLAMSRSIGDRYLKPSVIPDPEVTSVRRVKEDDCLILASDGLWDVMTNEEVCDLARKRILLWHKKNAMAGEALLPAEKRGEGKDPAAMSAAEYLSKMALQKGSKDNISVVVVDLKGIRKFKSKSLN
PP2C activity (pNPP substrate), 600 nM PP2C and 1200 nM receptor [2]: saturable inhibition of HAB1 and ABI2 PP2C activity by mandipropamid in the presence of PYR1^MANDI (FIG. 1A, bottom lines) and PYR1^K59R,F108A,S122G | PP2C activity (pNPP substrate), 600 nM PP2C and 1200 nM receptor (6×-His-PYR1^MANDI): saturable inhibition of HAB1 and ABI2 PP2C activity by mandipropamid in the presence of PYR1^MANDI

B3: PYR1^K59R,A89I (receptor)
chain: MPSELTPEERSELKNSIAEFHTYQLDPGSCSSLHAQRIHAPPELVWSIVRRFDKPQTYRHFIKSCSVEQNFEMRVGCTRDVIVISGLPINTSTERLDILDDERRVTGFSIIGGEHRLTNYKSVTTVHRFEKENRIWTVVLESYVVDMPEGNSEDDTRMFADTVVKLNLQKLATVAEAMARNSGDGSGSQVT
notes: pBD-PYR1 fusion in yeast
Threshold [3]: 100 µM

B4: PYR1^K59R,A89I,S92I (receptor)
chain: B3 chain with S92I
notes: pBD-PYR1 fusion in yeast
Threshold [3]: 50 µM

B5: PYR1^K59R,A89I,S92W (receptor)
chain: B3 chain with S92W
notes: pBD-PYR1 fusion in yeast
Threshold [3]: 50 µM

B6: PYR1^K59R,A89W (receptor)
chain: B3 chain with I89W
notes: pBD-PYR1 fusion in yeast
Threshold [4]: 100 µM | Threshold [3]: 100 µM

B7: PYR1^K59R,E141Y (receptor)
chain: B3 chain with I89A, E141Y
notes: pBD-PYR1 fusion in yeast
Threshold [5]: 100 µM | Threshold [6]: 100 µM | Threshold [7]: 100 µM

B8: PYR1^K59R,F159A (receptor, not shown: small tags and cut ends)
chain: B3 chain with I89A, F159A
notes: pBD-PYR1 fusion in yeast
Threshold [5]: 100 µM | Threshold [7]: 100 µM | Threshold [4]: 100 µM

B9: PYR1^K59R,F159C (receptor, not shown: small tags and cut ends)
chain: B3 chain with I89A, F159C
notes: pBD-PYR1 fusion in yeast
Threshold [7]: 100 µM | Threshold [4]: 100 µM

B10: PYR1^K59R,F159I (receptor, not shown: small tags and cut ends)
chain: B3 chain with I89A, F159I
notes: pBD-PYR1 fusion in yeast; also called K59R F1591
Threshold [6]: 100 µM | Threshold [7]: 100 µM | Threshold [4]: 100 µM

B11: PYR1^K59R,F159L (receptor, not shown: small tags and cut ends)
chain: B3 chain with I89A, F159L
notes: pBD-PYR1 fusion in yeast
Threshold [6]: 100 µM | Threshold [7]: 100 µM | Threshold [4]: 100 µM

B12: PYR1^K59R,F159M (receptor, not shown: small tags and cut ends)
chain: B3 chain with I89A, F159M
notes: pBD-PYR1 fusion in yeast
Threshold [7]: 100 µM | Threshold [4]: 100 µM

B13: PYR1^K59R,F159T (receptor, not shown: small tags and cut ends)
chain: B3 chain with I89A, F159T
notes: pBD-PYR1 fusion in yeast
Threshold [5]: 100 µM | Threshold [7]: 100 µM | Threshold [4]: 100 µM

B14: PYR1^K59R,F159V (receptor, not shown: small tags and cut ends)
chain: B3 chain with I89A, F159V
notes: pBD-PYR1 fusion in yeast
Threshold [5]: 100 µM | Threshold [6]: 100 µM | Threshold [7]: 100 µM | Threshold [4]: 100 µM | Threshold [3]: 100 µM

B15: PYR1^K59R,L87F (receptor)
chain: B3 chain with L87F, I89A
notes: pBD-PYR1 fusion in yeast
Threshold [5]: 100 µM | Threshold [3]: 100 µM

B16: PYR1^K59R,M158C (receptor, not shown: small tags and cut ends)
chain: B3 chain with I89A, M158C
notes: pBD-PYR1 fusion in yeast
Threshold [5]: 100 µM | Threshold [6]: 100 µM | Threshold [7]: 100 µM | Threshold [3]: 100 µM

B17: PYR1^K59R,M158I (receptor, not shown: small tags and cut ends)
chain: B3 chain with I89A, M158I
notes: pBD-PYR1 fusion in yeast
Threshold [5]: 100 µM | Threshold [6]: 100 µM | Threshold [7]: 100 µM

B18: PYR1^K59R,M158T (receptor, not shown: small tags and cut ends)
chain: B3 chain with I89A, M158T
notes: pBD-PYR1 fusion in yeast
Threshold [5]: 100 µM | Threshold [6]: 100 µM | Threshold [7]: 100 µM | Threshold [3]: 100 µM

B19: PYR1^K59R,M158V (receptor, not shown: small tags and cut ends)
chain: B3 chain with I89A, M158V
notes: pBD-PYR1 fusion in yeast
Threshold [5]: 100 µM | Threshold [6]: 100 µM | Threshold [7]: 100 µM | Threshold [3]: 100 µM

B20: PYR1^K59R,S92I (receptor)
chain: B3 chain with I89A, S92I
notes: pBD-PYR1 fusion in yeast
Threshold [3]: 50 µM

B21: PYR1^K59R,S92W (receptor)
chain: B3 chain with I89A, S92W
notes: pBD-PYR1 fusion in yeast
Threshold [3]: 50 µM

B22: PYR1^K59R,T162W (receptor, not shown: small tags and cut ends)
chain: B3 chain with I89A, T162W
notes: pBD-PYR1 fusion in yeast
Threshold [5]: 100 µM | Threshold [6]: 100 µM | Threshold [7]: 100 µM | Threshold [3]: 50 µM

B23: PYR1^K59R,V81I (receptor, not shown: small tags and cut ends)
chain: B3 chain with V81I, I89A
notes: pBD-PYR1 fusion in yeast
Threshold [5]: 100 µM | Threshold [7]: 100 µM

B24: PYR1^K59R,V83L (receptor, not shown: small tags and cut ends)
chain: B3 chain with V83L, I89A
notes: pBD-PYR1 fusion in yeast
Threshold [5]: 100 µM | Threshold [6]: 100 µM | Threshold [7]: 100 µM

B25: PYR1^K59R,V164K (receptor, not shown: small tags and cut ends)
chain: B3 chain with I89A, V164K
notes: pBD-PYR1 fusion in yeast
Threshold [5]: 100 µM | Threshold [6]: 100 µM | Threshold [7]: 100 µM

B26: PYR1^K59R,V164Y (receptor, not shown: small tags and cut ends)
chain: B3 chain with I89A, V164Y
notes: pBD-PYR1 fusion in yeast
Threshold [6]: 100 µM | Threshold [7]: 100 µM
